Measured values: the supplement of paper PMC9233669
This sample holds only a part of the variants without activity.

Assays:
biotinyl-Phe-oxazolone = test: self-aminoacylation, catalytic enhancement (BFO) (fold over background); higher = more active; k-Seq, kA / k0A0; sequences stand for … in GGGAAUGGAUCCACAUCUACGAAUUC…UUCACUGCAGACUUGACGAAGCUG
Outline: (§1)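 Working in 50 μL HEPES/NaCl/KCl/MgCl2/CaCl2 buffer with 5% acetonitrile at pH 6.9–7.0, mutagenized RNA pools (0.43 μM; 21-nt variable region) were reacted with 2–1250 μM of each biotinyl-aminoacyl-oxazolone for 90 minutes at room temperature. Streptavidin capture followed, with quantification by triplicate qPCR and Illumina sequencing. Catalytic enhancement is reported as median kA over the uncatalyzed rate, the low-activity peak of a bimodal Gaussian fit to the data.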

biotinyl-Ile-oxazolone = test: self-aminoacylation, catalytic enhancement (BIO) (fold over background); higher = more active; k-Seq, kA / k0A0; sequences stand for … in GGGAAUGGAUCCACAUCUACGAAUUC…UUCACUGCAGACUUGACGAAGCUG
Outline: as §1

biotinyl-Met-oxazolone = test: self-aminoacylation, catalytic enhancement (BMO) (fold over background); higher = more active; k-Seq, kA / k0A0; sequences stand for … in GGGAAUGGAUCCACAUCUACGAAUUC…UUCACUGCAGACUUGACGAAGCUG
Outline: as §1

biotinyl-Val-oxazolone = test: self-aminoacylation, catalytic enhancement (BVO) (fold over background); higher = more active; k-Seq, kA / k0A0; sequences stand for … in GGGAAUGGAUCCACAUCUACGAAUUC…UUCACUGCAGACUUGACGAAGCUG
Outline: as §1

biotinyl-Leu-oxazolone = test: self-aminoacylation, catalytic enhancement (BLO) (fold over background); higher = more active; k-Seq, kA / k0A0; sequences stand for … in GGGAAUGGAUCCACAUCUACGAAUUC…UUCACUGCAGACUUGACGAAGCUG
Outline: as §1

biotinyl-Trp-oxazolone = test: self-aminoacylation, catalytic enhancement (BWO) (fold over background); higher = more active; k-Seq, kA / k0A0; sequences stand for … in GGGAAUGGAUCCACAUCUACGAAUUC…UUCACUGCAGACUUGACGAAGCUG
Outline: as §1

Sequence	self-aminoacylation (biotinyl-Phe-oxazolone)	self-aminoacylation (biotinyl-Ile-oxazolone)	self-aminoacylation (biotinyl-Met-oxazolone)	self-aminoacylation (biotinyl-Val-oxazolone)	self-aminoacylation (biotinyl-Leu-oxazolone)	self-aminoacylation (biotinyl-Trp-oxazolone)
AUUGCCCUGGUCAUCGAGUGG [Fam2.1 aminoacylation ribozyme variant]	197	9.44	30.9	10.9	29.4	29.8
AUUGCCCUGGUCAUCGAGUGU [Fam2.1 aminoacylation ribozyme variant]	448	18.4	64.6	23.4	62.2	65.7
AUUGCCCUGGUCCUCGAGUGA [Fam2.1 aminoacylation ribozyme variant]	23.4	1.94	3.5	2.05	3.42	3.66
AUUGUCCUGGUCAUCGAGUGA [Fam2.1 aminoacylation ribozyme variant]	10	4.78	9.63	4.76	8.83	11.3
AUUUACCGAGGUCAUCGGGUG [Fam2.2 aminoacylation ribozyme variant]	64.7	4.97	8.5	4.5	11.1	6.88
AUUUACCUAGGACAUCGGGUG [Fam2.2 aminoacylation ribozyme variant]	10.9	2.26	2.48	2.23	3.45	2.29
AUUUACCUAGGUCAACGGGUG [Fam2.2 aminoacylation ribozyme variant]	29.2	2.56	4.05	2.26	4.95	3.56
AUUUACCUAGGUCAUCGAGUG [Fam2.2 aminoacylation ribozyme variant]	18.5	6.62	9.76	5.4	12.7	5.73
AUUUACCUAGGUCAUCGGAUG [Fam2.2 aminoacylation ribozyme variant]	0.723	0.906	0.954	0.974	0.846	0.671
AUUUACCUAGGUCAUCGUGUG [Fam2.2 aminoacylation ribozyme variant]	1.75	0.874	0.995	0.953	1.18	0.691
AUUUACCUAGGUCCUCGGGUG [Fam2.2 aminoacylation ribozyme variant]	28.6	3.33	4.15	3.3	6.13	4.31
AUUUACCUAGGUUAUCGGGUG [Fam2.2 aminoacylation ribozyme variant]	23.2	2.29	3.44	2.4	3.48	3.72
AUUUACCUCGGUCAUCGGGUG [Fam2.2 aminoacylation ribozyme variant]	54.6	4.06	6.78	4.9	8.51	7.01
AUUUACCUGGGUCAUCGGGUG [Fam2.2 aminoacylation ribozyme variant]	57.3	8.99	18.5	10.3	22.1	17.2
AUUUCCCUAGGUCAUCGGGUG [Fam2.2 aminoacylation ribozyme variant]	70.4	6.29	10.3	6.97	13.5	9.73
AUUUCCCUGGACAUCGAGUGA [Fam2.1 aminoacylation ribozyme variant]	41.7	2.83	6.51	3.54	5.46	8.11
AUUUCCCUGGUCAUCGAGUGC [Fam2.1 aminoacylation ribozyme variant]	2.11	1.1	1.86	1.08	1.59	1.21
AUUUCCCUGGUCAUCUAGUGA [Fam2.1 aminoacylation ribozyme variant]	76.6	4.45	8.93	4.67	9.47	11.7
AUUUCCGUGGUCAUCGAGUGA [Fam2.1 aminoacylation ribozyme variant]	52.8	3.67	6.67	4.26	6.35	8.19
AUUUCCUUGGUCAUCGAGUGA [Fam2.1 aminoacylation ribozyme variant]	43.8	4.35	8.2	4.63	8.92	11.1
AUUUGCCUGGUCAUCGAGUGA [Fam2.1 aminoacylation ribozyme variant]	13.1	4.47	8	4.54	8.2	9.16

Sequence	self-aminoacylation (biotinyl-Phe-oxazolone)	self-aminoacylation (biotinyl-Ile-oxazolone)	self-aminoacylation (biotinyl-Met-oxazolone)	self-aminoacylation (biotinyl-Val-oxazolone)	self-aminoacylation (biotinyl-Leu-oxazolone)	self-aminoacylation (biotinyl-Trp-oxazolone)
AUUUUUGCUAAUAGUCGCAAG [Fam3.1 aminoacylation ribozyme variant]	1.71	1.37	1.07	1.02	0.994	1.02
CAACAAUUCAAGCAAUCGGUC [Fam1B.1 aminoacylation ribozyme variant]	1.71	1.16	1.1	0.937	1.01	1.31
CAACACUCCAAGCAAUCGGUC [Fam1B.1 aminoacylation ribozyme variant]	1.67	1.13	1.02	1.06	0.956	1.77
CAACACUGCAAGCAAUCGGUC [Fam1B.1 aminoacylation ribozyme variant]	0.892	1.12	1.3	1.24	1.46	0.788
CAACACUUCAAGCAACCGGUC [Fam1B.1 aminoacylation ribozyme variant]	1.59	1	1.12	0.998	1.2	0.754
CAACACUUCAAGCUAUCGGUC [Fam1B.1 aminoacylation ribozyme variant]	0.964	1.2	1.03	1.05	0.89	1.02
CAACACUUCAGGCAAUCGGUC [Fam1B.1 aminoacylation ribozyme variant]	1.27	1.43	1.12	1.19	1.34	1.3
CAACUUAAAACAAUCGGUCUG [Fam1A.1 aminoacylation ribozyme variant]	1.71	0.984	1.09	1.14	1.11	0.948
CAACUUCAAACAAUCGGUUUG [Fam1A.1 aminoacylation ribozyme variant]	87.8	1.51	1.71	1.62	2.6	44
CAACUUCAAACAAUCGUUCUG [Fam1A.1 aminoacylation ribozyme variant]	1.83	0.675	0.624	0.734	0.728	1.03
CAACUUCAAACAAUGGGUCUG [Fam1A.1 aminoacylation ribozyme variant]	2.23	1.21	0.966	0.929	1.06	0.937
CAACUUCAAACAGUCGGUCUG [Fam1A.1 aminoacylation ribozyme variant]	5.76	1.21	1.2	1.19	1.08	0.928
CAACUUCAAACCAUCGGUCUG [Fam1A.1 aminoacylation ribozyme variant]	1.41	1.06	0.913	1.1	1.07	1.14
CAACUUCAACCAAUCGGUCUG [Fam1A.1 aminoacylation ribozyme variant]	66.9	1.37	1.67	1.61	2.41	33.2
CAACUUCAUACAAUCGGUCUG [Fam1A.1 aminoacylation ribozyme variant]	1.65	1.06	0.861	0.962	1.04	0.771
CAACUUCCAACAAUCGGUCUG [Fam1A.1 aminoacylation ribozyme variant]	1.69	1.13	1.15	0.929	0.985	1.14
CAGCACUUCAAGCAAUCGGUC [Fam1B.1 aminoacylation ribozyme variant]	34.4	1.67	1.79	1.55	2.33	22.1
CAGUGUGCUAAUAGUCGCAAG [Fam3.1 aminoacylation ribozyme variant]	1.76	1.51	1.58	1.46	1.46	1.59
CAGUUUGCAAAUAGUCGCAAG [Fam3.1 aminoacylation ribozyme variant]	2.37	1.72	1.65	1.52	2.03	2.02
CAGUUUGCUAAUAAUCGCAAG [Fam3.1 aminoacylation ribozyme variant]	1.1	0.97	1	1.03	0.99	0.939
CAGUUUGCUAAUAGCCGCAAG [Fam3.1 aminoacylation ribozyme variant]	1.44	1.86	1.26	1.46	1.69	1.07
